Like-named read-outs stand apart in the source and are kept apart here.
How the values were obtained:
hKLRF2 [1] = biological target: T1, hKLRF2 (human, UniProt D3W0D1 1-207); test: flow cytometry; 100 nM antibody on HEK293 cells expressing KLRF2; Alexa Fluor 647 anti-human IgG; MFI
T1 construct: Overexpressed on HEK293 cells
T1 sequence: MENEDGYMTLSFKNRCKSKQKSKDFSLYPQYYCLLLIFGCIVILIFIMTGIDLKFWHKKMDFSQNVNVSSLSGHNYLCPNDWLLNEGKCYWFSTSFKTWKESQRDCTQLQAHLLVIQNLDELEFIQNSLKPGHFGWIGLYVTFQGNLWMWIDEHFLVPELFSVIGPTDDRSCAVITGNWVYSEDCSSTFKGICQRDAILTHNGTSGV
Experimental: (§1) For the antibody binding assay, all cell lines were washed in phosphate-buffered saline with 0.1% bovine serum albumin (PBSA) and seeded in a 96 well plate at a density of 4×10⁴ cells per well. Washed cells were resuspended in 100 nM of antibody (a saturating concentration to measure maximum binding on cells) and incubated at room temperature for 30 minutes. […] Cells were analyzed by flow cytometry with a Thermo Fisher Attune flow cytometer.
(§2) Data were analyzed using FlowJo software. MFI for each sample was calculated and exported into Graphpad Prism.

hCLEC2D [2] = biological target: T2, hCLEC2D (human, UniProt Q9UHP7 1-191); test: flow cytometry; 100 nM antibody on HEK293 cells expressing CLEC2D; Alexa Fluor 647 anti-human IgG; MFI
T2 construct: Overexpressed on HEK293 or K562 cells; the same id is used for endogenous CLEC2D on NALM6 and Raji cells; also called LLT1
T2 sequence: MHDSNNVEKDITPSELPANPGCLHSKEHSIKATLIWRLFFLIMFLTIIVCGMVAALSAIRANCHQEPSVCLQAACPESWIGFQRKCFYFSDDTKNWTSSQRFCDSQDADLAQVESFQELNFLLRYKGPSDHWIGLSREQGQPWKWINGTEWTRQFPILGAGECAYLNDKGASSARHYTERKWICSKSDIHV
Experimental: as §1, §2

hKLRF2 [3] = biological target: T1, hKLRF2; test: flow cytometry, HEK293 transfectants, 100 nM antibody;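 further: antibody applied at a saturating level and incubated with cells for 30 min at room temperature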
Experimental: as §1, §2

hCLEC2D [4] = biological target: T2, hCLEC2D; test: as above
Experimental: as §1, §2

hKLRF1 [5] = biological target: T3, hKLRF1 (human, UniProt Q9NZS2 1-231); test: as above
T3 construct: Overexpressed on HEK293 cells
T3 sequence: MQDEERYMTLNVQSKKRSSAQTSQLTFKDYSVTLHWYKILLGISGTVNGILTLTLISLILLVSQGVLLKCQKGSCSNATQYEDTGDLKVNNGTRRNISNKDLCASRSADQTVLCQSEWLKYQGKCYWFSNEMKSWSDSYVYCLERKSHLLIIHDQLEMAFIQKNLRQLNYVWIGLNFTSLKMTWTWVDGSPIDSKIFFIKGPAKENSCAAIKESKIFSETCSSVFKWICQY
Experimental: as §1, §2

hCLEC12B [6] = biological target: T4, hCLEC12B (human, UniProt Q2HXU8 1-276); test: as above
T4 construct: Overexpressed on HEK293 cells
T4 sequence: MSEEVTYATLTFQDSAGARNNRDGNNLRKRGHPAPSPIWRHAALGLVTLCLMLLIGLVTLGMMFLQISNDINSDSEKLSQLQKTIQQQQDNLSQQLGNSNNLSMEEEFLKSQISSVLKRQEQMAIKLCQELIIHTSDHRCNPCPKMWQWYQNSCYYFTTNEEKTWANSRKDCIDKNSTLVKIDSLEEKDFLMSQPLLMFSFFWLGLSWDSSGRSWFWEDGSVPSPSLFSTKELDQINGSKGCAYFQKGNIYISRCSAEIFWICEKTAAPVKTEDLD
Experimental: as §1, §2

hCLEC12B [7] = biological target: T4, hCLEC12B; test: flow cytometry; 100 nM antibody on HEK293 cells expressing CLEC12B; Alexa Fluor 647 anti-human IgG; MFI
Experimental: as §1, §2

hKLRF1 [8] = biological target: T3, hKLRF1; test: flow cytometry; 100 nM antibody on HEK293 cells expressing KLRF1; Alexa Fluor 647 anti-human IgG; MFI
Experimental: as §1, §2

hCLEC2D [9] = biological target: T2, hCLEC2D; test: flow cytometry; 100 nM antibody on HEK293 cells expressing CLEC2D; Alexa Fluor 647 anti-human IgG; MFI; remark: listed apart in the source
Experimental: as §1, §2

hKLRF1 [10] = biological target: T3, hKLRF1; test: flow cytometry; 100 nM antibody on HEK293 cells expressing KLRF1; Alexa Fluor 647 anti-human IgG; MFI; remark: listed apart in the source
Experimental: as §1, §2

hKLRF2 [11] = biological target: T1, hKLRF2; test: flow cytometry; 100 nM antibody on HEK293 cells expressing KLRF2; Alexa Fluor 647 anti-human IgG; MFI; remark: listed apart in the source
Experimental: as §1, §2

B1: Ab18 (antibody, human IgG1, V domains shown)
VH: QVQLVESGGGLVKPGGSLRLSCAASGFTFSQYYMSWIRQAPGKGLEWVSYISPSGATIAYADSVKGRFTISRDNAKNSLYLQMNSLRAEDTAVYYCARSLMATGTHLYFDLWGRGTLVTVSS
VL: DIQLTQSPSSVSASVGDRVTITCRASQGISSWLAWYQQKPGKAPKLLIYAAESLQSGVPSRFSGSGSGTDFTLTISSLQPEDFATYYCQQVTSQPPYTFGGGTKVEIK
notes: IgG purified from yeast culture
hKLRF2 [1]
  binding result: no binding (tested: 100 nM)
hCLEC2D [2]
  binding result: no binding (tested: 100 nM)
hKLRF2 [3]
  % of CD161 binding: 0.101%
hCLEC2D [4]
  % of CD161 binding: 0.865%
hKLRF1 [5]
  % of CD161 binding: 0.121%
hCLEC12B [6]
  % of CD161 binding: 0.169%
hCLEC12B [7]
  binding result: no binding (tested: 100 nM)
hKLRF1 [8]
  binding result: no binding (tested: 100 nM)

B2: Ab15 (antibody, human IgG1, V domains shown)
VH: QVQLVESGGGLVKPGGSLRLSCAASGFTFPQYYMSWIRQAPGKGLEWVSYISPSGATIYYADSVKGRFTISRDNAKNSLYLQMNSLRAEDTAVYYCARSLMSTGTHLYFDLWGRGTLVTVSS
VL: DIQLTQSPSSVSASVGDRVTITCRASQGISSWLAWYQQKPGKAPKLLIYAASSLQSGVPSRFSGSGSGTDFTLTISSLQPEDFATYYCQQVTSTPPYTFGGGTKVEIK
notes: as for B1
hKLRF2 [1]
  binding result: no binding (tested: 100 nM)
hCLEC2D [2]
  binding result: no binding (tested: 100 nM)
hKLRF2 [3]
  % of CD161 binding: 0.067%
hCLEC2D [4]
  % of CD161 binding: 0.935%
hKLRF1 [5]
  % of CD161 binding: 0.114%
hCLEC12B [6]
  % of CD161 binding: 0.071%
hCLEC12B [7]
  binding result: no binding (tested: 100 nM)
hKLRF1 [8]
  binding result: no binding (tested: 100 nM)

B3: Ab14 (antibody, human IgG1, V domains shown)
VH: QVQLVESGGGLVKPGGSLRLSCAASGFTFGQYYMSWIRQAPGKGLEWVSYISPSGATIAYADSVKGRFTISRDNAKNSLYLQMNSLRAEDTAVYYCARSLMSTGTHLYFDLWGRGTLVTVSS
VL: DIQLTQSPSSVSASVGDRVTITCRASQGISDWLAWYQQKPGKAPKLLIYAASSLQSGVPSRFSGSGSGTDFTLTISSLQPEDFATYYCQQVTSFPPYTFGGGTKVEIK
notes: as for B1
hKLRF2 [1]
  binding result: no binding (tested: 100 nM)
hCLEC2D [2]
  binding result: no binding (tested: 100 nM)
hKLRF2 [3]
  % of CD161 binding: 0.054%
hCLEC2D [4]
  % of CD161 binding: 1.02%
hKLRF1 [5]
  % of CD161 binding: 0.09%
hCLEC12B [6]
  % of CD161 binding: 0.064%
hCLEC12B [7]
  binding result: no binding (tested: 100 nM)
hKLRF1 [8]
  binding result: no binding (tested: 100 nM)

B4: Ab13 (antibody, human IgG1, V domains shown)
VH: QVQLVESGGGLVKPGGSLRLSCAASGFTFANYYMSWIRQAPGKGLEWVSYISPSGATIAYADSVKGRFTISRDNAKNSLYLQMNSLRAEDTAVYYCARSLMATGTHLYFDLWGRGTLVTVSS
VL: DIQLTQSPSSVSASVGDRVTITCRASSGISSWLAWYQQKPGKAPKLLIYAASELQSGVPSRFSGSGSGTDFTLTISSLQPEDFATYYCQQATSFPPYTFGGGTKVEIK
notes: as for B1
hKLRF2 [1]
  binding result: no binding (tested: 100 nM)
hCLEC2D [2]
  binding result: no binding (tested: 100 nM)
hKLRF2 [3]
  % of CD161 binding: 0.089%
hCLEC2D [4]
  % of CD161 binding: 0.907%
hKLRF1 [5]
  % of CD161 binding: 0.106%
hCLEC12B [6]
  % of CD161 binding: 0.175%
hCLEC12B [7]
  binding result: no binding (tested: 100 nM)
hKLRF1 [8]
  binding result: no binding (tested: 100 nM)

B5: Ab12 (antibody, human IgG1, V domains shown)
VH: QVQLVESGGGLVKPGGSLRLSCAASGFTFAQYYMSWIRQAPGKGLEWVSYISPSGSTIAYADSVKGRFTISRDNAKNSLYLQMNSLRAEDTAVYYCARSLMATGTHLYFDLWGRGTLVTVSS
VL: DIQLTQSPSSVSASVGDRVTITCRASQDISSWLAWYQQKPGKAPKLLIYAASSLQSGVPSRFSGSGSGTDFTLTISSLQPEDFATYYCQQVTSFPPYTFGGGTKVEIK
notes: as for B1
hKLRF2 [1]
  binding result: no binding (tested: 100 nM)
hCLEC2D [2]
  binding result: no binding (tested: 100 nM)
hKLRF2 [3]
  % of CD161 binding: 0.055%
hCLEC2D [4]
  % of CD161 binding: 1.16%
hKLRF1 [5]
  % of CD161 binding: 0.065%
hCLEC12B [6]
  % of CD161 binding: 0.061%
hCLEC12B [7]
  binding result: no binding (tested: 100 nM)
hKLRF1 [8]
  binding result: no binding (tested: 100 nM)

B6: Ab3 (antibody, human IgG1, V domains shown)
VH: EVQLLESGGGLVQPGGSLRLSCAASGFTFERYAMSWVRQAPGKGLEWVSAISAAGGTTYYADSVKGRFTISRDNSKNTLYLQMNSLRAEDTAVYYCAKPLDSSQWADFDLWGRGTLVTVSS
VL: DIQLTQSPSSVSASVGDRVTITCRASQDISSWLAWYQQKPGKAPKFLIYAASALQSGVPSRFSGSGSGTDFTLTISSLQPEDFATYYCQQALVLPITFGGGTKVEIK
notes: as for B1
hKLRF2 [3]
  % of CD161 binding: -0.007%
hCLEC2D [4]
  % of CD161 binding: 0.832%
hKLRF1 [5]
  % of CD161 binding: 0.011%
hCLEC12B [6]
  % of CD161 binding: -0.042%
hCLEC2D [9]
  binding result: no binding (tested: 100 nM)
hKLRF1 [10]
  binding result: no binding (tested: 100 nM)

B7: Ab10 (antibody, human IgG1, V domains shown)
VH: EVQLLESGGGLVQPGGSLRLSCAASGFTFSQYAMSWVRQAPGKGLEWVSAISAVGGSTYYADSVKGRFTISRDNSKNTLYLQMNSLRAEDTAVYYCAKPLDSSQWADFDLWGRGTLVTVSS
VL: DIQLTQSPSSVSASVGDRVTITCRASQDISSWLAWYQQKPGKAPKLLIYAASALQSGVPSRFSGSGSGTDFTLTISSLQPEDFATYYCQQADVLPITFGGGTKVEIK
notes: as for B1
hKLRF2 [3]
  % of CD161 binding: 0.004%
hCLEC2D [4]
  % of CD161 binding: 0.935%
hKLRF1 [5]
  % of CD161 binding: 0.046%
hCLEC12B [6]
  % of CD161 binding: -0.004%
hKLRF2 [11]
  binding result: no binding (tested: 100 nM)
hCLEC2D [9]
  binding result: no binding (tested: 100 nM)
hKLRF1 [10]
  binding result: no binding (tested: 100 nM)

B8: Ab11 (antibody, human IgG1, V domains shown)
VH: EVQLLESGGGLVQPGGSLRLSCAASGFTFSQYAMSWVRQAPGKGLEWVSAISAAGGTTYYADSVKGRFTISRDNSKNTLYLQMNSLRAEDTAVYYCAKPLDSSQWADFDLWGRGTLVTVSS
VL: DIQLTQSPSSVSASVGDRVTITCRASQGIYSWLAWYQQKPGKAPKLLIYAASSLQSGVPSRFSGSGSGTDFTLTISSLQPEDFATYYCQQASDLPITFGGGTKVEIK
notes: as for B1
hKLRF2 [3]
  % of CD161 binding: 0.021%
hCLEC2D [4]
  % of CD161 binding: 0.785%
hKLRF1 [5]
  % of CD161 binding: 0.024%
hCLEC12B [6]
  % of CD161 binding: -0.003%
hKLRF2 [11]
  binding result: no binding (tested: 100 nM)
hCLEC2D [9]
  binding result: no binding (tested: 100 nM)
hKLRF1 [10]
  binding result: no binding (tested: 100 nM)

— patent US20250243281A1 (IMMUNITAS THERAPEUTICS, published 2025)
